Residue numbers refer to the chain shown, from its start. Blank lines part the entries; values can stand above or below the binder they belong to.
Experiments:
[1] = target: T1, (EAR)3 peptide; experiment: ELISA, (EAR)3 peptide coated, antibody at 100 µg/mL
T1 construct: Synthetic substrate peptide coated on the ELISA plate
T1 peptide: EAREAREAR

[2] = target: T2, Aβ (1-42) peptide (UniProt P05067 672-713); experiment: ELISA, Aβ(1-42) coated
T2 construct: domain: Aβ (1-42) peptide; also called Aβ42
T2 sequence (P05067 672-713 limits assumed): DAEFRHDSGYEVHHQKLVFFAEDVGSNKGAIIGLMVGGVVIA
Method: (§1) Briefly, an ELISA plate was coated with an Aβ (1-42) peptide at 1 μg/mL in a coating buffer (0.2M sodium carbonate-bicarbonate buffer, pH 9.4), 100 μL/well at 4° C. overnight. The Aβ peptide was removed and the plate was washed three times with 250 μL/well of a washing buffer (PBST). The plate was then blocked with 200 μL/well of a blocking buffer (1% BSA in PBST) for 1 hour at room temperature, and washed two times with 250 μL/well of the washing buffer. To each well of the plate was added 100 μL of the antibody sample (3× serial dilution in the range of 3 ng/mL to 20 μg/mL) and incubated at room temperature for 1 hour. […] The plate was then washed three times with 250 μL/well of the washing buffer. HRP substrate (Amplex Red and H₂O₂) was prepared freshly with a developing buffer (3.6 mM Na₂HPO₄, 1.4 mM NaH₂PO₄, at pH7.2), and 100 μL of the HRP substrate was added to each well and incubated for 1-60 minutes. Signals were subsequently detected using a plate reader (Excitation wavelength=530 nm, Emission wavelength=590 nm, and cutoff wavelength =570 nm).

[3] = target: T2, Aβ (1-42) peptide; experiment: ELISA, Aβ(1-42) coated at 1 µg/mL, antibody titrated 3 ng/mL to 20 µg/mL
Method: as §1

binding result [3]: binds
B4: bapineuzumab (antibody, V domains shown)
VH: EVQLLESGGGLVQPGGSLRLSCAASGFTFSNYGMSWVRQAPGKGLEWVASIRSGGGRTYYSDNVKGRFTISRDNAKNSLYLQMNSLRAEDTALYYCVRYDHYSGSSDYWGQGTLVTVSS
VL: YVVMTQSPLSLPVTPGEPASISCKSSQSLLDSDGKTYLNWLLQKPGQSPQRLIYLVSKLDSGVPDRFSGSGSGTDFTLKISRVEAEDVGVYYCWQGTHFPRTFGQGTKVEIKR
notes: also called humanized 3D6-Y; hu3D6-Y

binding result [2]: binds
B5: hu3D6-D H1L2 (antibody, V domains shown)
VH: B4 VH with L5V, G42D, G44R, S78T
VL: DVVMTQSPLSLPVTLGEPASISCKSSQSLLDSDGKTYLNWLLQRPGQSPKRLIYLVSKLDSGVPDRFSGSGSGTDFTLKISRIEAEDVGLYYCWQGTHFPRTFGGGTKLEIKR
notes: It was detected with goat anti-human IgG; also called hu3D6-D HIL2; hu3D6-D HISL2

The remaining lines, values behind:

B1: 3D6-D (antibody, V domains shown)
VH: EVKLVESGGGLVKPGASLKLSCAASGFTFSNYGMSWVRQNSDKRLEWVASIRSGGGRTYYSDNVKGRFTISRENAKNTLYLQMSSLKSEDTALYYCVRYDHYSGSSDYWGQGTTVTVSS
VL: not shown
notes: It was detected with anti-human IgG; also called 3D6-D antibody; 3D6-D catabody
binding result [1]: binds

B2: 3D6 (antibody, V domains shown)
VH: B1 VH
VL: not shown
notes: Non-catalytic anti-Aβ antibody, the parental murine antibody of bapineuzumab; An IgG1 isotype control and anti-human IgG detection were used; also called 3D6-Y; wild type 3D6 antibody
binding result [1]: binds

B3: hu3D6-D H1L1 (antibody, V domains shown)
VH: B4 VH with L5V, G42D, G44R, S78T
VL: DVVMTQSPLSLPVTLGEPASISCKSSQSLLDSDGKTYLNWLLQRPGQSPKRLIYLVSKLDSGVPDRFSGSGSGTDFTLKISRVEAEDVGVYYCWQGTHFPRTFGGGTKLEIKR
notes: It was detected with goat anti-human IgG; also called hu3D6-D HIL1; humanized 3D6-D catabody
binding result [2]: binds
